{"source": "patent US20240383984A1", "about": "(Genentech, published 2024)", "binders": {"B1": {"name": "1G7.v85/38E4.v1 TDB (bispecific antibody, V domains shown)", "VH 1": "EVQLVESGPGLVKPSETLSLTCTVSGFSLTRFGVHWVRQPPGKGLEWLGVIWRGGSTDYNAAFVSRLTISKDNSKNQVSLKLSSVTAADTAVYYCSNHYYGSSDYALDNWGQGTLVTVSS", "VL 1": "DIQMTQSPSSLSASVGDRVTITCKASQDVRNLVVWFQQKPGKAPKLLIYSGSYRYSGVPSRFSGSGSGTDFTLTISSLQPEDFATYYCQQHYSPPYTFGQGTKVEIK", "VH 2": "EVQLVQSGAEVKKPGASVKVSCKASGFTFTSYYIHWVRQAPGQGLEWIGWIYPENDNTKYNEKFKDRVTITADTSTSTAYLELSSLRSEDTAVYYCARDGYSRYYFDYWGQGTLVTVSS", "VL 2": "DIVMTQSPDSLAVSLGERATINCKSSQSLLNSRTRKNYLAWYQQKPGQSPKLLIYWTSTRKSGVPDRFSGSGSGTDFTLTISSLQAEDVAVYYCKQSFILRTFGQGTKVEIK", "notes": "knob-into-hole TDB; also called 1G7.v85 TDB; 1G7.v85 (TDB format)"}}, "key": {"[1]": {"target": "T1, human FcRH5 protein fragment (soluble) (human, UniProt Q96RD9 16-851)", "T1 construct": "whole entry named; also called soluble human FcRH5; Human FcRH5 (BIACORE analyte)", "T1 sequence": "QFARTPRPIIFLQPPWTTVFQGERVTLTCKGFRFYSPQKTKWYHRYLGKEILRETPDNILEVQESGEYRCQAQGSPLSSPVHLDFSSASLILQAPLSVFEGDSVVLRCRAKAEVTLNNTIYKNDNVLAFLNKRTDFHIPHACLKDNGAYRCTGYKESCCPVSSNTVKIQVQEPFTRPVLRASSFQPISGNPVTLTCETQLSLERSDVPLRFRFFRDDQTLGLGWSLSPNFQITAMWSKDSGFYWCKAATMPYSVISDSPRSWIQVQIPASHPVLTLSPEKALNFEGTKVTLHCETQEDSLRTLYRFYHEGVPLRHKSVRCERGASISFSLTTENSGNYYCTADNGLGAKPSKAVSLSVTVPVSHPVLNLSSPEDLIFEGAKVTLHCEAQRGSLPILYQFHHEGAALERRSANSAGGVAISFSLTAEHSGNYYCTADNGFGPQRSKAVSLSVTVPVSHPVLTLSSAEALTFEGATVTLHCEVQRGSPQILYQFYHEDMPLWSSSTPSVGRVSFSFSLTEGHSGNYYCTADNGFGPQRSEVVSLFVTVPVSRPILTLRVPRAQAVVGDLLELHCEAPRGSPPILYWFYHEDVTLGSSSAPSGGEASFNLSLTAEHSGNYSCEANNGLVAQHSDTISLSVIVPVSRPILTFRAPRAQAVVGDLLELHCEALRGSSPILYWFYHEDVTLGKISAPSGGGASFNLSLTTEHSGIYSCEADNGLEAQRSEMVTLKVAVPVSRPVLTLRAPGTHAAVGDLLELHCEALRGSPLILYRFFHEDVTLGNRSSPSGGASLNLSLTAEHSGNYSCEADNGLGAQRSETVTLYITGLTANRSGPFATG", "experiment": "BIACORE"}, "[2]": {"target": "T1, human FcRH5 protein fragment (soluble)", "experiment": "BIACORE, hIgG capture, 1:1 model, monovalent", "procedure": "(§1) Briefly, a human IgG capture surface was generated on a Series S CM5 chip using amine coupling and the human IgG capture kit (GE Life Sciences, Piscataway, NJ). Test antibodies were then captured on flow cells 2, 3, or 4, with flow cell 1 used as a reference. An FcRH5 protein fragment was used as the analyte, with a flow rate of […]. Between injections the capture surface was regenerated by a 30-second injection of 3M magnesium chloride or 10 mM glycine, pH 1.5. Interactions were assessed at 25° C. in 10 mM HEPES pH7.4, 150 mM NaCl, and 0.05% Tween 20 (HBSP). Reference data from the reference flow cell and from injection of buffer alone were subtracted prior to kinetic analysis. Kinetic information was calculated by fitting data to a 1:1 binding model. Reference subtraction and data fitting were performed using BIAevaluation software (GE Life Sciences, Piscataway, NJ).\n(§2) Kinetic characterization experiments were carried out (see Table 8). In these experiments, binding of soluble FcRH5 protein fragment to purified antibodies in human TDB antibody format was analyzed at six different non-zero concentrations (a 1:3 dilution series, one concentration injected twice as a replicate). Flow rate was set at 40 μl/min and association and dissociation monitored for 600 s."}, "[3]": {"target": "T2, cynomolgus FcRH5 protein fragment (soluble) (cynomolgus monkey)", "T2 construct": "whole entry named; also called Cyno FcRH5 (BIACORE analyte)", "T2 chain": "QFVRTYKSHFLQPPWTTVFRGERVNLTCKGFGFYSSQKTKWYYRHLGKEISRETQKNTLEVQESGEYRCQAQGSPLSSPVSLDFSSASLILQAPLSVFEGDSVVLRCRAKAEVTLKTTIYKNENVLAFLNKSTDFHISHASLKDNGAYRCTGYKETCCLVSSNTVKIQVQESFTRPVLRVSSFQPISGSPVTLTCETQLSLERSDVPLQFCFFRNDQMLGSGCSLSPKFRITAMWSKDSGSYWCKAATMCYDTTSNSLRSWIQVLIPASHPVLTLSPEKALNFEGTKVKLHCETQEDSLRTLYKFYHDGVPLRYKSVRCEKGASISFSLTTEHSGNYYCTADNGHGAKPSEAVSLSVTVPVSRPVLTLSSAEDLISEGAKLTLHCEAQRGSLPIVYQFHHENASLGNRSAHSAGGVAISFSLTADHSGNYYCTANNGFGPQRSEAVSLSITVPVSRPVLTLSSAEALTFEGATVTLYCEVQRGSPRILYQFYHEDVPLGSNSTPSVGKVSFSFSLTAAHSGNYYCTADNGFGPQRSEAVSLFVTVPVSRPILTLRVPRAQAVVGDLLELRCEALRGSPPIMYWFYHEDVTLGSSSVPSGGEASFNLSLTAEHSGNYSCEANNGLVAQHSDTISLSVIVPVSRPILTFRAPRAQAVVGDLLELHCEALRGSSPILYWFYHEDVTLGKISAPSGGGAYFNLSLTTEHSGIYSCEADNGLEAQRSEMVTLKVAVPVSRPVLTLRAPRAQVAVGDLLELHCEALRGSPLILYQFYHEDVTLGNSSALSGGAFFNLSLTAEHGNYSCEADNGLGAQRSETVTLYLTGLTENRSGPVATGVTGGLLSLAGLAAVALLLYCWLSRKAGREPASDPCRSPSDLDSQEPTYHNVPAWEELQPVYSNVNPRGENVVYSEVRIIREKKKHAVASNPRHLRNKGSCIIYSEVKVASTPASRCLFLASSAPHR", "experiment": "BIACORE, hIgG capture, 1:1 model, monovalent", "procedure": "as §1, §2"}, "[4]": {"target": "T1, human FcRH5 protein fragment (soluble)", "experiment": "SPR (BIACORE), Human FcRH5, 1:1 binding model"}, "[5]": {"target": "T1, human FcRH5 protein fragment (soluble)", "experiment": "SPR (BIACORE), hIgG capture format, 1:1 binding model, monovalent affinity; same numbers as FIG. 10B, Hu FcRH5 panel", "procedure": "as §2"}, "[6]": {"target": "T2, cynomolgus FcRH5 protein fragment …", "experiment": "SPR (BIACORE), hIgG capture format, 1:1 binding model, monovalent affinity; same numbers as FIG. 10B, Cyno FcRH5 panel", "procedure": "as §2"}}, "data": [{"binder": "B1", "values": [{"measurement": "Kd", "setting": "[1]", "value": 2.1, "unit": "nM"}, {"measurement": "Kd", "setting": "[2]", "value": 2.35, "unit": "nM"}, {"measurement": "Kd", "setting": "[3]", "value": 6.76, "unit": "nM"}, {"measurement": "Kd", "setting": "[4]", "value": 2.08, "unit": "nM"}, {"measurement": "koff", "setting": "[4]", "value": 0.000746, "unit": "s⁻¹"}, {"measurement": "kon", "setting": "[4]", "value": 359000, "unit": "M⁻¹ s⁻¹"}, {"measurement": "Kd", "setting": "[5]", "value": 2.35, "unit": "nM"}, {"measurement": "koff", "setting": "[5]", "value": 0.00104, "unit": "s⁻¹"}, {"measurement": "kon", "setting": "[5]", "value": 441000, "unit": "M⁻¹ s⁻¹"}, {"measurement": "Kd", "setting": "[6]", "value": 6.76, "unit": "nM"}, {"measurement": "koff", "setting": "[6]", "value": 0.000847, "unit": "s⁻¹"}, {"measurement": "kon", "setting": "[6]", "value": 125000, "unit": "M⁻¹ s⁻¹"}]}]}
